Legend:
[1] = biological target: mGlu5-Δ856 (construct for large-scale purification, devoid of eGFP) (human) (UniProt P41594)
[2] = biological target: mGlu5-Δ856 (construct for large-scale purification, devoid of eGFP) (human) (UniProt P41594); experiment: SEC; purified receptor on Superose 6 increase in MNG3/CHS

Gαqβ1γ2, sequence (P50148 whole entry): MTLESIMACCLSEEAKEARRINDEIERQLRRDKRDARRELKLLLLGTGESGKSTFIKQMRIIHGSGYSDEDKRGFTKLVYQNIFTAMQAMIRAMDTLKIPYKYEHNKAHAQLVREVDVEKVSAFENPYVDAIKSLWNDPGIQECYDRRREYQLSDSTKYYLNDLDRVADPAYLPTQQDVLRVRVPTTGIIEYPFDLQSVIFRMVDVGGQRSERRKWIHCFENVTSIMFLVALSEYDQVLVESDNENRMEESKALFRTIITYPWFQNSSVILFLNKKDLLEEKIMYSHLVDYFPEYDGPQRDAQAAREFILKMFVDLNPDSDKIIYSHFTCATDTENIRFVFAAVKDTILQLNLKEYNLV
Gαqβ1γ2, sequence (P62873 whole entry): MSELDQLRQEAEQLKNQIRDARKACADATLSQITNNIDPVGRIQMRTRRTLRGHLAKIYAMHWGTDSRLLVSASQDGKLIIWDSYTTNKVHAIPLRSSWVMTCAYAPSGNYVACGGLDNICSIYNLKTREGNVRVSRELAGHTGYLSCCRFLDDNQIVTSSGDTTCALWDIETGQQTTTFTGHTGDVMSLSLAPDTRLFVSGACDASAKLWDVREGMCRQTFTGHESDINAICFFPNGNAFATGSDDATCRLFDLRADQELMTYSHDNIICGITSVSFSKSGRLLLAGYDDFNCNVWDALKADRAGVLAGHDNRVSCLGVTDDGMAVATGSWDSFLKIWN
Gαqβ1γ2, sequence (P59768 whole entry): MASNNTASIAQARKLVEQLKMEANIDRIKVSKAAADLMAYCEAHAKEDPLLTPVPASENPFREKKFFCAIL

Substance: Gαqβ1γ2 (from UniProt P50148 1-359; P62873 1-340; P59768 1-71) (complex)
- Bodipy-FL GTPγS fluorescence, purified receptor in detergent, glutamate and VU0424465 together: increase of the maximum response [1]: 30%

Substance: mGlu5-Δ856 (construct for large-scale purification, devoid of eGFP) (from UniProt P41594-2 21-856) (receptor)
- stoichiometry N [2]: 2
